Assay results published in paper PMC8766458, “Deciphering the mechanism of processive ssDNA digestion by the Dna2-RPA ensemble” (Nature Communications, 2022).

Target: dna2-D657A (nuclease-dead);RPA (Saccharomyces cerevisiae;Saccharomyces …, UniProt P38859;P22336;P26754;P26755 1-1522;1-621;1-273;1-122, D657A|)
Test: EMSA; ternary complex; EMSA: 25 mM Tris-HCl pH 7.5, 150 mM KCl, 1 mM DTT, 100 µg/mL BSA, 5 nM DNA, 30 °C 10 min, 4% native PAGE in 0.2x TBE; DNA curtains: 50 or 150 mM NaCl, 0.1 nM RPA-GFP
Settings: protein: recombinant;recombinant; tags: His6, FLAG;none; copies: 1;1;1;1; label: 32P 5'-end; 5' overhang 30 nt (dT30), 20 bp duplex

dna2-D657A (nuclease-dead);RPA, sequence (P38859 whole entry D657A, chain 1 of 4): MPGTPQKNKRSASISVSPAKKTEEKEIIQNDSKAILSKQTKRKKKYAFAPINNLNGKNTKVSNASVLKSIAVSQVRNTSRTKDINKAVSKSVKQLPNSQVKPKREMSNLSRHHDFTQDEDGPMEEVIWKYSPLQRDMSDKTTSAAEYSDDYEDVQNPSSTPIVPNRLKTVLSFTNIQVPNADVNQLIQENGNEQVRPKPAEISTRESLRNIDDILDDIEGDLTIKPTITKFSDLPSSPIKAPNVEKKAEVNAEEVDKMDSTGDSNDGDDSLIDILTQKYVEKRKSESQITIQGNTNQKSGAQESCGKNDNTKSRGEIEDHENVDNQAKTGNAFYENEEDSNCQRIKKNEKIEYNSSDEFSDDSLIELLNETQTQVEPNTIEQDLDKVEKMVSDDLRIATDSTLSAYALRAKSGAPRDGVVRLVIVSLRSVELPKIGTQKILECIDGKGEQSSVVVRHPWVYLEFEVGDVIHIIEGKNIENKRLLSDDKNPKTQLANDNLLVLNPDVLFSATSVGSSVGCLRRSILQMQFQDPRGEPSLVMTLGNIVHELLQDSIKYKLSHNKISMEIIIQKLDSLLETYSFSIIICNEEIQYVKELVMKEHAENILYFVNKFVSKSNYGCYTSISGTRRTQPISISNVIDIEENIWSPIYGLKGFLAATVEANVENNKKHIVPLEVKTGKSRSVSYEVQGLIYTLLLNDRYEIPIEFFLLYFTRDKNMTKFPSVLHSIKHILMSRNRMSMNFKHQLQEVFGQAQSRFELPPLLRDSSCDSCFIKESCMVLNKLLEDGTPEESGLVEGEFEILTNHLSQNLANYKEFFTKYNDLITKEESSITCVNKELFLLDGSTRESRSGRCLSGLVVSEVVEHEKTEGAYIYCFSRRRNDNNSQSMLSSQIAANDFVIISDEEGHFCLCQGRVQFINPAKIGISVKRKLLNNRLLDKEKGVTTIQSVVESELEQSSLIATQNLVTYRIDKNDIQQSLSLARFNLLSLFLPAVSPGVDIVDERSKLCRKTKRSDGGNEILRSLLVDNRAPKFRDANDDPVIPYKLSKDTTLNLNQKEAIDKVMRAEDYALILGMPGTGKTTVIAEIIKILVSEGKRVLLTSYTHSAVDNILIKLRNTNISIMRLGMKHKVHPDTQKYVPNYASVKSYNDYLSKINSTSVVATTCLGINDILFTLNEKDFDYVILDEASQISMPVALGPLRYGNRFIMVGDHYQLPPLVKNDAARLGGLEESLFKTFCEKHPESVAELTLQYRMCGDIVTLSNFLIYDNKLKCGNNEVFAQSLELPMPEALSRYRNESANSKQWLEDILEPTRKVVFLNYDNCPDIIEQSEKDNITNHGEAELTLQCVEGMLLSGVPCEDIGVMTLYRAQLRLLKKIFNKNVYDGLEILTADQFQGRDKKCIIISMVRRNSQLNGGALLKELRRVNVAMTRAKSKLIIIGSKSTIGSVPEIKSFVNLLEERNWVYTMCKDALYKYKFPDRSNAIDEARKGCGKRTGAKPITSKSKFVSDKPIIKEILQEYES
dna2-D657A (nuclease-dead);RPA, sequence (P22336 whole entry, chain 2 of 4): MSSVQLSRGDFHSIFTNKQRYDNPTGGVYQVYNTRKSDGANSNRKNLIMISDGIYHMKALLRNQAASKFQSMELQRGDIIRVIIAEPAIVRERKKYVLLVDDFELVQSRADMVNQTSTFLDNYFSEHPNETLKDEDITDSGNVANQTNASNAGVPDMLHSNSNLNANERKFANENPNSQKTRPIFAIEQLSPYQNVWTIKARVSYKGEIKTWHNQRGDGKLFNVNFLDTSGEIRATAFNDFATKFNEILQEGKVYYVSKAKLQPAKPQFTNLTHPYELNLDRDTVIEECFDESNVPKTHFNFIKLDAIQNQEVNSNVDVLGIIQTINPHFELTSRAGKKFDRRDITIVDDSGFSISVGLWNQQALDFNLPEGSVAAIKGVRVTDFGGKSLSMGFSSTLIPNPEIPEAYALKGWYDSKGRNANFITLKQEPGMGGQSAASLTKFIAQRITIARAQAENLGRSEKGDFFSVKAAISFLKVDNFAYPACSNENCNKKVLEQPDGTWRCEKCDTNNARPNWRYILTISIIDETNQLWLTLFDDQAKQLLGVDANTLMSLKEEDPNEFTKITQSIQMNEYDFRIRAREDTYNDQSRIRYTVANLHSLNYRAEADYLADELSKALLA
dna2-D657A (nuclease-dead);RPA, sequence (P26754 whole entry, chain 3 of 4): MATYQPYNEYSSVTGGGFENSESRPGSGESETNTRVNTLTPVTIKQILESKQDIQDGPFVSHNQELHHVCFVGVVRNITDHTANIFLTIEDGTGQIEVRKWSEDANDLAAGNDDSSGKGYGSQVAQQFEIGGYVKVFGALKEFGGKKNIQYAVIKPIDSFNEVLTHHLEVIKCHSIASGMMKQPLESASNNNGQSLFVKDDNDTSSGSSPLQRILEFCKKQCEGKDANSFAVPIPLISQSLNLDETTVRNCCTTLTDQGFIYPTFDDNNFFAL
dna2-D657A (nuclease-dead);RPA, sequence (P26755 whole entry, chain 4 of 4): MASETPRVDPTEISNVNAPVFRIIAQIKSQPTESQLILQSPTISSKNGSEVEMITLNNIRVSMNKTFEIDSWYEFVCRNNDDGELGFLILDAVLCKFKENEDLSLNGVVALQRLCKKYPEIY

B1: 5'-overhanging dT(30) DNA (S10+S11) (mixed)
DNA 1: TTTTTTTTTTTTTTTTTTTTTTTTTTTTTTTTGATAAGAGGTCATTTGAA
DNA 2: TTCAAATGACCTCTTATCAA
B1: binds.
